B1: chymase C22S/F41V/L99W/G151L/F173K/R217S/A226R (enzyme)
chain: IIGGTESKPHSRPYMAYLEIVTSNGPSKVCGGFLIRRNFVLTAAHCAGRSITVTLGAHNITEEEDTWQKLEVIKQFRHPKYNTSTWHHDIMLLKLKEKASLTLAVGTLPFPSQFNFVPPGRMCRVAGWGRTGVLKPLSDTLQEVKLRLMDPQACSHKRDFDHNLQLCVGNPRKTKSAFKGDSGGPLLCAGVAQGIVSYGSSDAKPPRVFTRISHYRPWINQILQAN
B2: chymase C22S/A226R (enzyme)
chain: B1 chain with V29F, W86L, L137G, K157F, S200R
B3: chymase C22S/F173Y/D175N/A226R (enzyme)
chain: B1 chain with V29F, W86L, L137G, K157Y, D159N, S200R
B4: chymase C22S/L99H/F173Y/K192R/S218L/A226R (enzyme)
chain: B1 chain with V29F, W86H, L137G, K157Y, K179R, S200R, S201L
B5: chymase C22S/L99Y/F173Y/K192R/S218L/A226R (enzyme)
chain: B1 chain with V29F, W86Y, L137G, K157Y, K179R, S200R, S201L
B6: chymase C22S/F41R/L99G/G151T/F173Y/Y215R/R217M/A226R (enzyme)
chain: B1 chain with V29R, W86G, L137T, K157Y, Y198R, S200M
B7: chymase C22S/F41R/L99H/G151T/F173Y/Y215K/R217M/A226R (enzyme)
chain: B1 chain with V29R, W86H, L137T, K157Y, Y198K, S200M
B8: chymase C22S/F41I/L99W/G151L/F173K/R217S/A226R (enzyme)
chain: B1 chain with V29I
B9: chymase C22S/L99H/F173I/K192R/Y215K/R217T/S218I/A226R (enzyme)
chain: B1 chain with V29F, W86H, L137G, K157I, K179R, Y198K, S200T, S201I
B10: chymase C22S/F41R/L99Y/G151T/F173K/R217S/A226R (enzyme)
chain: B1 chain with V29R, W86Y, L137T

Where a chain is given by its changes, count along the chain named. Names may count otherwise.

Sequence of alpha-2-marcroglobin (A2M) (P01023 24-1474): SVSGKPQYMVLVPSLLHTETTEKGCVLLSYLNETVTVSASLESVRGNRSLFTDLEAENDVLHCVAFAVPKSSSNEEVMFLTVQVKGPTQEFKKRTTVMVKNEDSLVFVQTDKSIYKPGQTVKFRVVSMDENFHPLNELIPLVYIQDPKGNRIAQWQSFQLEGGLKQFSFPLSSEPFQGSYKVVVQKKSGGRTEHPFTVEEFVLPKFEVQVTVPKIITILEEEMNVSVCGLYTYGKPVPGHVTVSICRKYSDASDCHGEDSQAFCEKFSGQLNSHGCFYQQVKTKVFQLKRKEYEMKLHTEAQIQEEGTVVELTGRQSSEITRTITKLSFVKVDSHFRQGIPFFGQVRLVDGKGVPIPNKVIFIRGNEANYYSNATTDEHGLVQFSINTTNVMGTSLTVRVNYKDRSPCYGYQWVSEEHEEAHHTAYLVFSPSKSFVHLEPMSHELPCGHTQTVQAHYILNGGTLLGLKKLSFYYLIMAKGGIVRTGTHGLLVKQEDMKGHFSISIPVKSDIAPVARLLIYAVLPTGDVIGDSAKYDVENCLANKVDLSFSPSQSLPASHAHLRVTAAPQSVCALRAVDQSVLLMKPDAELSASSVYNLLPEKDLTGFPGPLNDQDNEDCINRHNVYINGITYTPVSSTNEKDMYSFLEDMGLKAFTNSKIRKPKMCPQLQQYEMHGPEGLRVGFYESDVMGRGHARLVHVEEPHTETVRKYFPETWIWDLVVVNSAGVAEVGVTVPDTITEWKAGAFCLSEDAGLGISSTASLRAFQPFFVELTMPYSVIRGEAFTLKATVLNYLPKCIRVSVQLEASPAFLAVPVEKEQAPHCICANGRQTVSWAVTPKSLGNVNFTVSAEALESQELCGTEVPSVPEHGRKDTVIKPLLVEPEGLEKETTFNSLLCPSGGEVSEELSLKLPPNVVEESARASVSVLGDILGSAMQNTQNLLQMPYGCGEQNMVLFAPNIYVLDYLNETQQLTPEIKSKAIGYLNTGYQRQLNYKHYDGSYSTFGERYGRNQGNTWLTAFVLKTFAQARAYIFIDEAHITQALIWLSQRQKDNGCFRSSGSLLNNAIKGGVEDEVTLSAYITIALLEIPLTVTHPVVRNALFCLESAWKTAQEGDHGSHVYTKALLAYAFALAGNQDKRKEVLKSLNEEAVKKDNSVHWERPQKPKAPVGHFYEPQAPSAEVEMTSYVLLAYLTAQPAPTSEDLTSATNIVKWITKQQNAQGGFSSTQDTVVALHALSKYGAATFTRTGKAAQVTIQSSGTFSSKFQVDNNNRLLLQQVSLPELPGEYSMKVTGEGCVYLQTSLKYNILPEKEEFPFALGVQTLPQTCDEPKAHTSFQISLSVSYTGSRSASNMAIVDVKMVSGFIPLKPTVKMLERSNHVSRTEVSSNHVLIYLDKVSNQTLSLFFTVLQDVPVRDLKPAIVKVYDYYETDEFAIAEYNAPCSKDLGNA

The first experiment concerns the target alpha-2-marcroglobin (A2M) (UniProt P01023). Description: inhibition of the protease by the plasma inhibitor.
Molecule B1 registered a kapp of 329 M⁻¹ s⁻¹.
B2 came in with a kapp of 812 M⁻¹ s⁻¹.
As to B3, the kapp is 645 M⁻¹ s⁻¹.
Same read-out and setting: next, B4: 356 M⁻¹ s⁻¹; B5: 3130 M⁻¹ s⁻¹.

The target of another experiment is EGVD/AE-ACT. Description: reaction of the protease with the serpin bait EGVD/AE-ACT.
B1 yielded a k*app (second order rate constant) of 1360.
Consider B2, for which the k*app (second order rate constant) was 77.
As to B6, the k*app (second order rate constant) was found to be 773.
B7: the k*app (second order rate constant) was determined as 1500.
B8 had a k*app (second order rate constant) of 1730.
The molecule B9 gave a k*app (second order rate constant) of 1040.
Same read-out and setting: under B10 stands 684.

Source of the values: US20240117334A1, “FACTOR B PROTEASES” (Vertex Pharmaceuticals Incorporated, priority 2021, published 2024).
